Patent publication US20160052997A1 (CELLTRION, published 2016)
Changes are numbered by the printed parent chain. “And” between values parts separate entries of the source, which are not always exact repeats. Identical values can stand only once. Like-named read-outs stand apart in the source and are kept apart here.

Assays:
[1] = biological target: T1, purified recombinant HA protein of H1N1 (A/Solomon Island/03/06) (Influenza A virus A/Solomon …)
[2] = biological target: T2, HA of A/Texas/05/2009 (H1N1) virus (Influenza A virus A/Texas/05/2009 (H1N1)); experiment: cell-based or functional assay
[3] = biological target: T3, HA of A/Ohio/83 (H1N1) virus (Influenza A virus A/Ohio/83 (H1N1)); experiment: cell-based or functional assay
[4] = biological target: T4, HA of A/Solomon Islands/2006 (H1N1) virus (Influenza A virus A/Solomon …); experiment: cell-based or functional assay
[5] = biological target: T5, HA of A/New York/18/2009 (H1N1) virus (Influenza A virus A/New York/18/2009 …); experiment: cell-based or functional assay
[6] = biological target: T1, purified recombinant HA protein of H1N1 …; experiment: SPR, Biacore T200, HA captured via anti-6x his tag antibody, 25 C
[7] = biological target: T6, HA of A/ck/HK/G9/97 (H9N2) virus (Influenza A virus A/ck/HK/G9/97 (H9N2)); experiment: cell-based or functional assay
[8] = biological target: T7, HA of Anhui/1/05 (H5N1) virus (Influenza A virus A/Anhui/1/05 (H5N1)); experiment: cell-based or functional assay
[9] = biological target: T2, HA of A/Texas/05/2009 (H1N1) virus; experiment: cell-based or functional assay; remark: listed apart in the source
[10] = biological target: T3, HA of A/Ohio/83 (H1N1) virus; experiment: cell-based or functional assay; remark: listed apart in the source
[11] = biological target: T8, HA of A/Wisconsin/67/05 (H3N2) virus (Influenza A virus A/Wisconsin/67/05 …); experiment: cell-based or functional assay
[12] = biological target: T9, HA of A/Ohio/07/2009 (H1N1) virus (Influenza A virus A/Ohio/07/2009 (H1N1)); experiment: cell-based or functional assay
[13] = biological target: HA of A/turkeyNirginia/02 (H7N2) virus (Influenza A virus A/turkey/Virginia/02 …); experiment: cell-based or functional assay
[14] = biological target: T10, HA of A/Brisbane/10/07 (H3N2) virus (Influenza A virus A/Brisbane/10/07 …); experiment: cell-based or functional assay
[15] = biological target: T4, HA of A/Solomon Islands/2006 (H1N1) …; experiment: cell-based or functional assay; remark: listed apart in the source
[16] = biological target: T5, HA of A/New York/18/2009 (H1N1) virus; experiment: cell-based or functional assay; remark: listed apart in the source
[17] = biological target: T11, HA of A/Ann Arbor/6/60 ca (H2N2) virus (Influenza A virus A/Ann Arbor/6/60 ca …); experiment: cell-based or functional assay
[18] = biological target: HA of A/Green-winged teal/209/TX/2009 (H9N2) virus (Influenza A virus A/Green-winged …); experiment: cell-based or functional assay
[19] = biological target: T6, HA of A/ck/HK/G9/97 (H9N2) virus; experiment: cell-based or functional assay; remark: listed apart in the source
[20] = biological target: T7, HA of Anhui/1/05 (H5N1) virus; experiment: cell-based or functional assay; remark: listed apart in the source
[21] = biological target: T2, HA of A/Texas/05/2009 (H1N1) virus; experiment: cell-based or functional assay; remark: listed apart in the source
[22] = biological target: T3, HA of A/Ohio/83 (H1N1) virus; experiment: cell-based or functional assay; remark: listed apart in the source
[23] = biological target: T9, HA of A/Ohio/07/2009 (H1N1) virus; experiment: cell-based or functional assay; remark: listed apart in the source
[24] = biological target: HA of A/PuertoRico/8/34 (H1N1) virus (Influenza A virus A/PuertoRico/8/34 …, UniProt P03452 18-565); experiment: cell-based or functional assay
[25] = biological target: T4, HA of A/Solomon Islands/2006 (H1N1) …; experiment: cell-based or functional assay; remark: listed apart in the source
[26] = biological target: T11, HA of A/Ann Arbor/6/60 ca (H2N2) virus; experiment: cell-based or functional assay; remark: listed apart in the source
[27] = biological target: T12, HA of A/Hong Kong/68 (H3N2) virus (Influenza A virus A/Hong Kong/68 (H3N2)); experiment: cell-based or functional assay
[28] = biological target: T8, HA of A/Wisconsin/67/05 (H3N2) virus; experiment: cell-based or functional assay; remark: listed apart in the source
[29] = biological target: T10, HA of A/Brisbane/10/07 (H3N2) virus; experiment: cell-based or functional assay; remark: listed apart in the source
[30] = biological target: T12, HA of A/Hong Kong/68 (H3N2) virus; experiment: cell-based or functional assay; remark: listed apart in the source
[31] = biological target: HA of A/Beijing/32/92-R-H3N2 PR8 virus (Influenza A virus A/Beijing/32/92 (H3N2)); experiment: cell-based or functional assay
[32] = biological target: HA of A/Perth/16/09 (H3N2) virus (Influenza A virus A/Perth/16/09 (H3N2)); experiment: cell-based or functional assay
[33] = biological target: HA of A/Anhui/1/2013 (H7N9) virus (Influenza A virus A/Anhui/1/2013 (H7N9)); experiment: cell-based or functional assay
[34] = biological target: HA of A/Sydney/5/97 (H3N2) virus (Influenza A virus A/Sydney/5/97 (H3N2)); experiment: cell-based or functional assay
[35] = biological target: HA of A/Shanghai/2/2013 (H7N9) virus (Influenza A virus A/Shanghai/2/2013 …); experiment: cell-based or functional assay

B1: CT120 (antibody, V domains shown)
VH: QVQLVQSGAEVKMPGSSVKVSCKTSGVFFSSHAISWVRQAPGQGLEWMGGISPMFGTTHYAQKFQGRVTITADQSTTTAYMELTSLTSEDTAVYYCARDGAGSYYPLNWFDPWGQGTLVTVSS
VL: EIVLTQSPATLSLSPGERATLSCRASENIWNNLAWYQQKPGQAPRLLISGASTGATGVPSRFRGSGSRTEFTLTISSLQSEDFAIYFCQQYNSWPRTFGPGTKVEIKR
- Kd [1]: 2.82 nM
- MN test: lowest antibody concentration at which no virus antigen was detected [2]: 0.313 µg/mL
- MN test: lowest antibody concentration at which no virus antigen was detected [3]: 0.156 µg/mL
- MN test: lowest antibody concentration at which no virus antigen was detected [4]: 0.625 µg/mL
- MN test: lowest antibody concentration at which no virus antigen was detected [5]: 0.313 µg/mL
- Kd [6]: 2.79 nM and 2.85 nM
- koff [6]: 0.000684 s⁻¹ and 0.000703 s⁻¹
- kon [6]: 245000 M⁻¹ s⁻¹ and 246000 M⁻¹ s⁻¹
- MN test: lowest antibody concentration at which no virus antigen was detected [7]: 0.078 µg/mL
- MN test: lowest antibody concentration at which no virus antigen was detected [8]: 0.625 µg/mL
- MN test: lowest antibody concentration at which no virus antigen was detected [9]: 0.156 µg/mL
- MN test: lowest antibody concentration at which no virus antigen was detected [10]: 0.156 µg/mL
- MN test: lowest antibody concentration at which no virus antigen was detected [11]: > 10 µg/mL
- MN test: lowest antibody concentration at which no virus antigen was detected [12]: 0.039 µg/mL
- MN test: lowest antibody concentration at which no virus antigen was detected [13]: > 20 µg/mL
- MN test: lowest antibody concentration at which no virus antigen was detected [14]: > 20 µg/mL
- MN test: lowest antibody concentration at which no virus antigen was detected [15]: 0.625 µg/mL
- MN test: lowest antibody concentration at which no virus antigen was detected [16]: 0.313 µg/mL
- MN test: lowest antibody concentration at which no virus antigen was detected [17]: 0.312 µg/mL
- MN test: lowest antibody concentration at which no virus antigen was detected [18]: 0.625 µg/mL
- EC50, microneutralization test [19]: 3.12 µg/mL
- EC50, microneutralization test [20]: 6.92 µg/mL
- EC50, microneutralization test [21]: 1.19 µg/mL
- EC50, microneutralization test [22]: 0.26 µg/mL
- EC50, microneutralization test [23]: 0.14 µg/mL
- EC50, microneutralization test [24]: 0.33 µg/mL
- EC50, microneutralization test [25]: 0.25 µg/mL
- EC50, microneutralization test [26]: 6.53 µg/mL

B2: CT149 (antibody, V domains shown)
VH: QVQLVQSGAEVKKPGASVKVSCKTSGYSFSTYGVSWVRQAPGQGPEWVGWISAYTGITDYAQKFQGRVTLTTDATTATAFLDLRSLRPDDTATYFCARDKVQGRVEVGSGGRHDYWGQGTLVIVSS
VL: EVVLTQSPGTLALPPGERATLSCRASHRVGSTYIAWYQQKSGQAPRRLIYGASNRATDIPDRFSGSGSGTDFTLTIRRLEPEDSAVYYCQQFSVSPWTFGQGTRVEIKR
- MN test: lowest antibody concentration at which no virus antigen was detected [27]: 2.5 µg/mL
- MN test: lowest antibody concentration at which no virus antigen was detected [28]: 1.25 µg/mL
- MN test: lowest antibody concentration at which no virus antigen was detected [29]: 1.25 µg/mL
- Kd [1]: 345 nM
- Kd [6]: 368 nM and 323 nM
- koff [6]: 0.0904 s⁻¹ and 0.105 s⁻¹
- kon [6]: 246000 M⁻¹ s⁻¹ and 324000 M⁻¹ s⁻¹
- MN test: lowest antibody concentration at which no virus antigen was detected [7]: 0.312 µg/mL
- MN test: lowest antibody concentration at which no virus antigen was detected [30]: 2.5 µg/mL
- MN test: lowest antibody concentration at which no virus antigen was detected [8]: 0.625 µg/mL
- MN test: lowest antibody concentration at which no virus antigen was detected [9]: > 10 µg/mL
- MN test: lowest antibody concentration at which no virus antigen was detected [10]: > 10 µg/mL
- MN test: lowest antibody concentration at which no virus antigen was detected [11]: 1.25 µg/mL
- MN test: lowest antibody concentration at which no virus antigen was detected [12]: 5 µg/mL
- MN test: lowest antibody concentration at which no virus antigen was detected [13]: 10 µg/mL
- MN test: lowest antibody concentration at which no virus antigen was detected [14]: 1.25 µg/mL
- MN test: lowest antibody concentration at which no virus antigen was detected [15]: > 10 µg/mL
- MN test: lowest antibody concentration at which no virus antigen was detected [16]: > 10 µg/mL
- MN test: lowest antibody concentration at which no virus antigen was detected [17]: > 10 µg/mL
- MN test: lowest antibody concentration at which no virus antigen was detected [18]: 0.156 µg/mL
- EC50, microneutralization test [19]: 7.39 µg/mL
- EC50, microneutralization test [20]: 11 µg/mL
- EC50, microneutralization test [31]: 1.36 µg/mL
- EC50, microneutralization test [32]: 2.06 µg/mL
- EC50, microneutralization test (Contract Lab A) [33]: 0.9 µg/mL
- EC50, microneutralization test [34]: 2.93 µg/mL
- EC50, microneutralization test (Contract Lab A) [35]: 1.17 µg/mL
- EC50, microneutralization test (Contract Lab B) [35]: 7.71 µg/mL

B3: CT104 (antibody, V domains shown)
VH: QVQLVQSGAEVKKPGSSVKVSCKASGGTLNNYAISWVRQAPGQGLEWMGGISPIFGTLNYAERFQGRVTITADVFTNTVYMELSSLRSEDTAVYFCARGCGYNCYYFDGWGQGTLVTVSS
VL: EIVLTQSPGTLSLSPGERATLSCRASQSLSSSSLVWYQQKPGQAPRLLIYGASSRATGIPDRFSGSGSGTDFTLTISRLEPEDFAVYYCQQYGNSPYTFGQGTQVEIKR
- MN test: lowest antibody concentration at which no virus antigen was detected [2]: 0.313 µg/mL
- MN test: lowest antibody concentration at which no virus antigen was detected [3]: 0.313 µg/mL
- MN test: lowest antibody concentration at which no virus antigen was detected [4]: 0.625 µg/mL
- MN test: lowest antibody concentration at which no virus antigen was detected [5]: 0.625 µg/mL

B4: CT123 (antibody, V domains shown)
VH: QVQLVESGGGVVQPGRSLRLSCAASGFTFSRFGIHWVRQAPGKGLEWMAVIWYDGSNKFYADSVKGRFTISRDNSKNTVYLQMNSLRAEDTAVYYCAKDSRGYCSSIICFEGGLDNWGQGTLVTVSS
VL: B3 VL with I2T, L29V, S31I, S33Y, V35A, Q39R, S54R, N94S, Q104K, V105L
- MN test: lowest antibody concentration at which no virus antigen was detected [2]: 0.313 µg/mL
- MN test: lowest antibody concentration at which no virus antigen was detected [3]: 0.313 µg/mL
- MN test: lowest antibody concentration at which no virus antigen was detected [4]: 1.25 µg/mL
- MN test: lowest antibody concentration at which no virus antigen was detected [5]: 0.625 µg/mL
